Test results: article PMC8097335, “A High‐Affinity Calmodulin‐Binding Site in the CyaA Toxin Translocation Domain is Essential for Invasion of Eukaryotic Cells” (Advanced Science, 2021)

Molecular target: T1, calmodulin (calcium-loaded: holo-CaM) (UniProt P0DP23)
T1 construct: also called apo-CaM (without calcium)
Assay: other fluorescence titration + ITC
Details: both partners purified

Binder | fold decrease of affinity for CaM against P454 [fold] | Kd [µM]
ASAHWGQRALQGAQAVAAAQRLVSAAALMTQ [P454 H477S-I479A peptide] | ~20 | –
ASAHWGQEALQGAQAVAAAQELVHAIALMTQ (also called TAMRA-P454 R12E) [P454 R12E peptide (P454 with R461E and R474E)] | – | 22.7
ASAHWGQRALQGAQAVAAAQRAVSAAALMTQ [P454 L475A-H477S-I479A peptide] | ~20 | –
ASAHAGQRAAQGAQAVAAAQRLVHAIALMTQ [P454 W458A-L463A peptide] | 4 | –
